Drawing on article PMC4386031, this text covers Kd for one substance.

This assay concerns the target seven of the nine datasets (monoUb and the diUb types fitted to a one-site binding model). Put plainly: SPR; monoUb and all types of diUb immobilized, NZF1 (or its mutants) binding detected; one-site or two-site binding model; two experiments.

For the substance “TRABID NZF1 (aa 1-33) (from UniProt Q9UGI0 1-33) (domain or fragment)”, the Kd (usually the free concentration of one partner at which half of the binding sites on the other are occupied at equilibrium, for simple one-to-one binding) fell in the range of 190 to 370 µM.
